Molecular target: T1, GST-USF1 T100D (UniProt P22415 1-310, T100D)
T1 construct: USF1 with the CK2 phosphorylation site threonine 100 changed to the phospho-mimicking aspartic acid, as GST fusion; also called phospho-mimicking USF1_(T100D) mutant; source: bacterial expression, purified GST fusion protein
Assay: pull-down; 10 µg purified GST fusion protein on GSH-sepharose in PBS-T (PBS pH 7.4, 1% Tween 20), 2 h at 4 °C with 7.5 µl in vitro translated [35S]methionine-labelled partner; SDS-PAGE, Coomassie, autoradiography
Conditions: one partner purified

T1 sequence (P22415 whole entry T100D, the tested form may be a part): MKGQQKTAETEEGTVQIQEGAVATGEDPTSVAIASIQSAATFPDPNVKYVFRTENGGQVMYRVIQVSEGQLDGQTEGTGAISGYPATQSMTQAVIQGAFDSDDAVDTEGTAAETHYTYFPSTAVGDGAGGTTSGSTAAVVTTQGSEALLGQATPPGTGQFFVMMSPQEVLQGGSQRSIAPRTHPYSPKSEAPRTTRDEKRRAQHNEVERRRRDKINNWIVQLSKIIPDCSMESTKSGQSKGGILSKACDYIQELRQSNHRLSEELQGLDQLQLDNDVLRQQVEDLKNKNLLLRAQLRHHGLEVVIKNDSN

fold binding against wild-type or alanine mutant USF1: 3.5 fold
B1: in vitro translated PDX-1 (pRSET-PDX-1) (natural protein)
chain: not shown
modifications: [35S]methionine labelled
notes: mouse PDX-1 cDNA cloned in frame into the BamH1/HindIII sites of pRSETA; also called wild-type PDX-1; source: in vitro translated (from pRSET-PDX-1, Promega)
